Results from the supplement of paper PMC10724198.
± gives the standard deviation of the averaged measurements.

Columns and labels:
Saccharomyces cerevisiae [1] = experiment: protein stability index of tFT-peptide fusion (C-terminal peptide) (PSI (0-1 scale)); higher = more stable (slower turnover)
Description: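 MPS profiling in S. cerevisiae of the tFT-X12 degron library: putative degron peptides plus stable controls, 12 aa, fused to the C-terminus of a sfGFP-mCherry timer. Cells are FACS-sorted into 8 mCherry/sfGFP bins and deep-sequenced. PSI runs from 0 (unstable) to 1 (stable). Backgrounds are wild type, das1Δ and doa10Δ at 30 °C, and wild type, das1Δ, cdc34-1 and cdc53-1 at 37 °C; 2-3 technical replicates each.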

Saccharomyces cerevisiae [2] = experiment: as above; details: genetic background: wild type; temperature: 30 C
[3] = genetic background: cdc34-1, temperature: 37 C
[4] = genetic background: cdc53-1, temperature: 37 C
[5] = genetic background: das1 deletion, temperature: 30 C
[6] = genetic background: das1 deletion, temperature: 37 C
[7] = genetic background: doa10 deletion, temperature: 30 C
[8] = genetic background: wild type, temperature: 30 C
[9] = genetic background: wild type, temperature: 37 C
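Also: PSI is a weighted mean of sequencing reads over stability bins, variants kept only with over 10 reads, mCherry proximal and sfGFP distal, peptide attached via GGGS linker.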

Row | Sequence | protein stability index (Saccharomyces cerevisiae [1]; [3]) | protein stability index (Saccharomyces cerevisiae [1]; [4]) | protein stability index (Saccharomyces cerevisiae [1]; [5]) | protein stability index (Saccharomyces cerevisiae [1]; [6]) | protein stability index (Saccharomyces cerevisiae [1]; [7]) | protein stability index (Saccharomyces cerevisiae [1]; [8]) | protein stability index (Saccharomyces cerevisiae [1]; [9]) | protein stability index (Saccharomyces cerevisiae [2])
1 | NFSLFVHFLGLC | 0.668 ± 0.047 | 0.703 ± 0.024 | 0.606 ± 0.021 | 0.687 ± 0.027 | 0.361 ± 0.0091 | 0.399 ± 0.023 | 0.608 ± 0.025 | 0.445 ± 0.052
2 | NNGLLLDILIKA | 0.388 ± 0.034 | 0.399 ± 0.073 | 0.28 ± 0.044 | 0.463 ± 0.021 | 0.248 ± 0.0094 | 0.295 ± 0.028 | 0.4517 ± 0.0037 | 0.364 ± 0.059
3 | NTNITHHSVKLR | 0.671 ± 0.017 | 0.7346 ± 0.0071 | 0.64 ± 0.026 | 0.712 ± 0.044 | 0.644 ± 0.024 | 0.662 ± 0.038 | 0.689 ± 0.036 | 0.727 ± 0.034
4 | NVWCWGASCFFC | 0.709 ± 0.048 | 0.797 ± 0.01 | 0.684 ± 0.0069 | 0.773 ± 0.0087 | 0.3367 ± 0.0033 | 0.36 ± 0.021 | 0.561 ± 0.025 | 0.447 ± 0.023
5 | PALLLFLRNLLL | 0.714 ± 0.022 | 0.7282 ± 0.0042 | 0.6419 ± 0.0029 | 0.757 ± 0.017 | 0.304 ± 0.018 | 0.352 ± 0.059 | 0.542 ± 0.009 | 0.447 ± 0.012
6 | PAPANRPTPRPV | 0.666 ± 0.041 | 0.7177 ± 0.006 | 0.661 ± 0.03 | 0.722 ± 0.011 | 0.652 ± 0.014 | 0.6256 ± 0.006 | 0.7517 ± 0.0059 | 0.7 ± 0.028
7 | PCVCFIILGMLS | 0.42 ± 0.013 | 0.515 ± 0.012 | 0.322 ± 0.035 | 0.563 ± 0.01 | 0.285 ± 0.013 | 0.308 ± 0.016 | 0.52 ± 0.021 | 0.449 ± 0.012
8 | PFARIIDILLVI | 0.486 ± 0.022 | 0.5346 ± 0.0045 | 0.404 ± 0.042 | 0.5395 ± 0.00065 | 0.298 ± 0.0017 | 0.315 ± 0.022 | 0.495 ± 0.061 | 0.41 ± 0.026
9 | PFIPLLLAPALA | 0.4032 ± 0.0011 | 0.409 ± 0.0068 | 0.297 ± 0.036 | 0.458 ± 0.0089 | 0.275 ± 0.0074 | 0.307 ± 0.023 | 0.4205 ± 0.00058 | 0.441 ± 0.1
10 | PFPRCRLIFFFM | 0.5172 ± 0.0045 | 0.7266 ± 0.0031 | 0.549 ± 0.025 | 0.742 ± 0.043 | 0.106 ± 0.0088 | 0.115 ± 0.017 | 0.139 ± 0.019 | 0.171 ± 0.045
11 | PFRSAYYLLFLL | 0.496 ± 0.048 | 0.6347 ± 0.0016 | 0.54 ± 0.013 | 0.6738 ± 0.00079 | 0.122 ± 0.015 | 0.118 ± 0.0092 | 0.161 ± 0.026 | 0.205 ± 0.035
12 | PFVATRVSCFLT | 0.542 ± 0.013 | 0.704 ± 0.024 | 0.626 ± 0.087 | 0.685 ± 0.0089 | 0.339 ± 0.004 | 0.39 ± 0.05 | 0.4393 ± 0.00057 | 0.414 ± 0.015
13 | PHFDLLLCLSLN | 0.625 ± 0.026 | 0.753 ± 0.057 | 0.676 ± 0.049 | 0.718 ± 0.018 | 0.248 ± 0.032 | 0.257 ± 0.033 | 0.521 ± 0.016 | 0.366 ± 0.0045
14 | PHLDLYRLSALI | 0.705 ± 0.01 | 0.751 ± 0.016 | 0.668 ± 0.032 | 0.79 ± 0.012 | 0.329 ± 0.031 | 0.366 ± 0.021 | 0.57 ± 0.021 | 0.47 ± 0.0056
15 | PHPPRPPCPPIL | 0.673 ± 0.041 | 0.736 ± 0.015 | 0.674 ± 0.0068 | 0.721 ± 0.0074 | 0.699 ± 0.037 | 0.678 ± 0.015 | 0.699 ± 0.0093 | 0.74 ± 0.019
16 | PHVSALSRDPES | 0.698 ± 0.038 | 0.728 ± 0.0092 | 0.649 ± 0.021 | 0.7247 ± 0.0027 | 0.65 ± 0.025 | 0.662 ± 0.017 | 0.701 ± 0.016 | 0.716 ± 0.018
17 | PISNMSIILLFL | 0.495 ± 0.072 | 0.595 ± 0.043 | 0.439 ± 0.028 | 0.593 ± 0.016 | 0.378 ± 0.018 | 0.391 ± 0.015 | 0.556 ± 0.027 | 0.48 ± 0.04
18 | PLFFGVQAFGGV | 0.727 ± 0.026 | 0.79052 ± 0.0004 | 0.664 ± 0.029 | 0.7644 ± 0.0042 | 0.669 ± 0.033 | 0.679 ± 0.014 | 0.7622 ± 0.0021 | 0.7335 ± 0.0045
19 | PLPCFVLRLPVF | 0.39 ± 0.037 | 0.429 ± 0.033 | 0.298 ± 0.031 | 0.465 ± 0.0064 | 0.267 ± 0.011 | 0.304 ± 0.024 | 0.4379 ± 0.0024 | 0.402 ± 0.02
20 | PLPSEKAPTLLL | 0.686 ± 0.019 | 0.735 ± 0.01 | 0.637 ± 0.0092 | 0.736 ± 0.036 | 0.636 ± 0.027 | 0.6384 ± 0.0045 | 0.718 ± 0.0072 | 0.583 ± 0.15

Row | Sequence | protein stability index (Saccharomyces cerevisiae [1]; [3]) | protein stability index (Saccharomyces cerevisiae [1]; [4]) | protein stability index (Saccharomyces cerevisiae [1]; [5]) | protein stability index (Saccharomyces cerevisiae [1]; [6]) | protein stability index (Saccharomyces cerevisiae [1]; [7]) | protein stability index (Saccharomyces cerevisiae [1]; [8]) | protein stability index (Saccharomyces cerevisiae [1]; [9]) | protein stability index (Saccharomyces cerevisiae [2])
21 | PLPSFLYFILLR | 0.22 ± 0.062 | 0.196 ± 0.024 | 0.333 ± 0.03 | 0.396 ± 0.024 | 0.524 ± 0.035 | 0.357 ± 0.012 | 0.359 ± 0.044 | 0.44 ± 0.079
22 | PLRKYLRHLLSL | 0.59822 ± 0.00032 | 0.7453 ± 0.0022 | 0.647 ± 0.022 | 0.735 ± 0.036 | 0.1635 ± 0.0013 | 0.159 ± 0.012 | 0.285 ± 0.0041 | 0.218 ± 0.055
23 | PLRRPPPRPPWP | 0.65 ± 0.025 | 0.7054 ± 0.0032 | 0.674 ± 0.024 | 0.7032 ± 0.003 | 0.69 ± 0.03 | 0.644 ± 0.025 | 0.687 ± 0.011 | 0.494 ± 0.036
24 | PLSPTNLSRLLS | 0.658 ± 0.034 | 0.7642 ± 0.0043 | 0.651 ± 0.012 | 0.744 ± 0.0077 | 0.1987 ± 0.0011 | 0.234 ± 0.037 | 0.526 ± 0.033 | 0.339 ± 0.015
25 | PPGSPPGSLRPT | 0.67 ± 0.038 | 0.715 ± 0.027 | 0.664 ± 0.026 | 0.713 ± 0.013 | 0.662 ± 0.029 | 0.665 ± 0.036 | 0.703 ± 0.013 | 0.78 ± 0.025
26 | PPHRTLLQLRTN | 0.599 ± 0.072 | 0.728 ± 0.035 | 0.661 ± 0.022 | 0.727 ± 0.0085 | 0.169 ± 0.021 | 0.164 ± 0.02 | 0.313 ± 0.015 | 0.343 ± 0.18
27 | PPPAPPLSMPAP | 0.647 ± 0.064 | 0.73 ± 0.027 | 0.665 ± 0.014 | 0.718 ± 0.026 | 0.671 ± 0.021 | 0.681 ± 0.022 | 0.6928 ± 0.0055 | 0.0173 ± 0.0038
28 | PPPLCSTCIRCC | 0.197 ± 0.035 | 0.206 ± 0.038 | 0.224 ± 0.027 | 0.354 ± 0.0097 | 0.175 ± 0.0021 | 0.205 ± 0.019 | 0.274 ± 0.013 | 0.293 ± 0.0083
29 | PPQDQAPVGVND | 0.672 ± 0.041 | 0.7509 ± 0.0024 | 0.619 ± 0.019 | 0.74 ± 0.0071 | 0.623 ± 0.03 | 0.644 ± 0.038 | 0.7007 ± 0.0022 | 0.474 ± 0.064
30 | PPRCLLPPPSRS | 0.652 ± 0.034 | 0.699 ± 0.014 | 0.694 ± 0.015 | 0.693 ± 0.0092 | 0.72 ± 0.05 | 0.692 ± 0.012 | 0.678 ± 0.009 | 0.79 ± 0.015
31 | PPRDPGGLFTPF | 0.732 ± 0.017 | 0.7854 ± 0.0062 | 0.679 ± 0.0077 | 0.7763 ± 0.003 | 0.703 ± 0.022 | 0.674 ± 0.028 | 0.767 ± 0.039 | 0.71756 ± 0.00059
32 | PPSPAPLPDSLP | 0.662 ± 0.036 | 0.6995 ± 0.0011 | 0.684 ± 0.038 | 0.715 ± 0.017 | 0.693 ± 0.015 | 0.691 ± 0.021 | 0.696 ± 0.0075 | 0.7006 ± 0.0066
33 | PPSPPLLFHFPP | 0.669 ± 0.049 | 0.756 ± 0.013 | 0.661 ± 0.0077 | 0.7367 ± 0.005 | 0.661 ± 0.022 | 0.658 ± 0.018 | 0.7058 ± 0.007 | 0.586 ± 0.15
34 | PPTLLPPLHPAP | 0.681 ± 0.056 | 0.725 ± 0.0045 | 0.663 ± 0.011 | 0.7217 ± 0.005 | 0.666 ± 0.028 | 0.688 ± 0.038 | 0.731 ± 0.023 | 0.64 ± 0.23
35 | PTLPASLHSIYP | 0.654 ± 0.03 | 0.72 ± 0.031 | 0.684 ± 0.028 | 0.698 ± 0.021 | 0.687 ± 0.03 | 0.6731 ± 0.0056 | 0.6917 ± 0.0027 | 0.768 ± 0.024
36 | PTYSCSIKIQAH | 0.539 ± 0.037 | 0.537 ± 0.037 | 0.407 ± 0.03 | 0.5503 ± 0.0049 | 0.339 ± 0.01 | 0.366 ± 0.022 | 0.517 ± 0.02 | 0.427 ± 0.031
37 | PWGSHLYYVVCI | 0.168 ± 0.026 | 0.228 ± 0.011 | 0.238 ± 0.03 | 0.3371 ± 0.0028 | 0.183 ± 0.013 | 0.221 ± 0.035 | 0.315 ± 0.016 | 0.339 ± 0.023
38 | PWWDALLRARVC | 0.429 ± 0.033 | 0.6 ± 0.054 | 0.435 ± 0.021 | 0.625 ± 0.019 | 0.103 ± 0.013 | 0.115 ± 0.022 | 0.159 ± 0.0039 | 0.163 ± 0.025
39 | PYVHPFRCYWVL | 0.589 ± 0.032 | 0.717 ± 0.027 | 0.621 ± 0.02 | 0.7396 ± 0.0015 | 0.128 ± 0.01 | 0.138 ± 0.0077 | 0.181 ± 0.016 | 0.193 ± 0.029
